Laboratory results: patent publication US20230310621A1, “COMPLEXES FOR THE DELIVERY OF PROTEINACEOUS AGENTS” (priority 2020, published 2023)

What was measured:
[1] = Ultrafiltration of PAEC; particle recovery by light scattering, free SDS by HPLC-ELSD; type: physicochemical; conditions: filtrate fraction of ultrafiltration
Procedure: The fraction of SDS under a free form, i.e. not associated to the PAECs, was determined on the following composition: P24/CpG/SDS/DA002: 200/80/200/350 μg/mL. This analysis was done after separation of the PAECs from free SDS, using ultrafiltration. The free SDS concentration in the permeate fraction was then determined by HPLC using an AZorbax 80A Extend-C18 column. 3.0×150 mm, 3.5 μm from Agilent and an Evaporative Light Scattering Detector (ELSD) Alltech® Model 3300.
Particle recovery has been estimated from the mean light scattering of the permeate fraction of ultrafiltration. The particle recovery percentage was measured as the mean and SD of light scattering count rate of 3 measurements; the SDS recovery percentage was measured as mean and SD of 2 HPLC analysis.

[2] = Circular dichroism, % helix in human insulin on storage at 4° C.; type: physicochemical
Procedure: From these CD spectra we have calculated the % of helix in human insulin overtime of storage at 4° C. on 12-day period. […] The CD spectra were taken […].
The CD analysis was carried out after storing the PAEC for 1, 6 or 12 days at 4° C.

Which results are given for `CCCCCCCCCCCCOS(=O)(=O)[O-].[Na+]` [Free SDS, sodium dodecyl sulphate]?
SDS recovery (wt %) ([1]; 2 HPLC analysis): 100.0 wt %; Particle recovery (Id %) ([1]; mean and SD of 3 measurements): 0.78 ± 0.07 Id %

With “Human Insulin: free human insulin, small globular protein, Mw 5808 Da” as the molecule, how does the “percentage helix content in human insulin, Day 1” value ([2]; stored 1 day at 4° C.) read?
The value was 14.6%.

And the “percentage helix content in human insulin, Day 6” value ([2]; stored 6 days at 4° C.)?
The value was 37.4%.

What about the “percentage helix content in human insulin, Day 12” value ([2]; stored 12 days at 4° C.) of the same molecule?
Its value is 36.9%.
